Data: patent US20170056488A1

Biological target: HLA-A*02 (human)
Assay: UV ligand exchange, anti-b2m ELISA; exchange yield grade

Binder: VLLRVLIL
- peptide exchange yield: 20 to 49%
